{
  "source": "patent US20250263462A1",
  "about": "(published 2025)",
  "binders": {"B1": {"name": "TRAV12N-3*01/BV4*01 murine anti-KRAS G12D TCR (SEQ ID NOs: 11 and 12) (TCR, V domains shown)", "Valpha": "GDSVTQTEGLVTLTEGLPVMLNCTYQTIYSNPFLFWYVQHLNESPRLLLKSFTDNKRTEHQGFHATLHKSSSSFHLQKSSAQLSDSALYYCALRGNAGAKLTFGGGTRLTVRP", "Vbeta": "ETAVFQTPNYHVTQVGNEVSFNCKQTLGHDTMYWYKQDSKKLLKIMFSYNNKQLIVNETVPRRFSPQSSDKAHLNLRIKSVEPEDSAVYLCASSSRDWSAETLYFGSGTRLTVL"}, "B2": {"name": "TRAV3-3*01/TRBV4*01 murine anti-KRAS G12V TCR (SEQ ID NOs: 133 and 134) (TCR, V domains shown)", "Valpha": "GEQVEQRPPHLSVREGDSAVITCTYTDPNSYYFFWYKQEPGASLQLLMKVFSSTEINEGQGFTVLLNKKDKRLSLNLTAAHPGDSAAYFCAVSGGTNSAGNKLTFGIGTRVLVRP", "Vbeta": "ETAVFQTPNYHVTQVGNEVSFNCKQTLGHDTMYWYKQDSKKLLKIMFSYNNKQLIVNETVPRRFSPQSSDKAHLNLRIKSVEPEDSAVYLCASSRDWGPAEQFFGPGTRLTVL"}, "B3": {"name": "TRAV4-4/DV10*01/BV12-2*01 murine anti-KRAS G12D TCR (SEQ ID NOs: 157 and 158) (TCR, V domains shown)", "Valpha": "GDQVEQSPSALSLHEGTDSALRCNFTTTMRSVQWFRQNSRGSLISLFYLASGTKENGRLKSAFDSKERRYSTLHIRDAQLEDSGTYFCAADSSNTGYQNFYFGKGTSLTVIP", "Vbeta": "NSGVVQSPRYIIKGKGERSILKCIPISGHLSVAWYQQTQGQELKFFIQHYDKMERDKGNLPSRFSVQQFDDYHSEMNMSALELEDSAVYFCASSLTDPLDSDYTFGSGTRLLVI"}, "B4": {"name": "TRAV19*01/TRBV13-1*02 murine anti-KRAS G12V TCR (SEQ ID NOs: 145 and 146) (TCR, V domains shown)", "Valpha": "GQQVKQSSPSLTVQEGGILILNCDYENDMFDYFAWYKKYPDNSPTLLISVRSNVDKREDGRFTVFLNKSGKHFSLHITASQPEDTAVYLCAAGDSGGSNYKLTFGKGTLLTVTP", "Vbeta": "EAAVTQSPRNKVTVTGGNVTLSCRQTNSHNYMYWYRQDTGHGLRLIHYSYGAGNLQIGDVPDGYKATRTTQEDFFLLLELASPSQTSLYFCASASWGGYAEQFFGPGTRLTVL"}, "B5": {"name": "TRAV12N-3*01 + TRBV5*01 (TCR)", "Valpha": "B1 Valpha", "beta TRBV5*01 2*01/2-1*01 CDR3": "CASSQDSLGRAEQFF"}, "B6": {"name": "TRAV16D/DV11*03 + TRBV5*01 (TCR)", "alpha TRAV16D/DV11*03 52*01 CDR3": "CAMREDTGANTGKLTF", "beta TRBV5*01 2*01/2-1*01 CDR3": "CASSQDSLGRAEQFF"}, "B7": {"name": "TRAV3-3*01 + TRBV13-1*02 (TCR, V domains shown)", "Valpha": "B2 Valpha", "Vbeta": "B4 Vbeta"}, "B8": {"name": "TRAV19*01 + TRBV4*01 (TCR, V domains shown)", "Valpha": "B4 Valpha", "Vbeta": "B2 Vbeta"}, "B9": {"name": "TRAV16D/DV11*03 + TRBV4*01 (TCR)", "alpha TRAV16D/DV11*03 52*01 CDR3": "CAMREDTGANTGKLTF", "Vbeta": "B1 Vbeta"}, "B10": {"name": "Substituted TRAV4-4/DV10*01/BV12-2*01 (CDR3alpha G112A) (SEQ ID NOs: 209 and 158) (TCR, V domains shown)", "Valpha": "B3 Valpha with G96A", "Vbeta": "B3 Vbeta"}},
  "note": "Residue numbers refer to the chain shown, from its start. Names may count otherwise.",
  "data": [
    {"target": "T1, KRAS G12D peptide on HLA-A*11:01 (human)", "T1 peptide": "VVVGADGVG", "assay": "cytokine release", "values": [
      {"binder": "B1", "binding result": "no recognition"}
    ]},
    {"target": "T2, KRAS G12D peptide on HLA-A*11:01 (human)", "T2 peptide": "VVGADGVGK", "assay": "cytokine release", "values": [
      {"binder": "B1", "binding result": "no recognition"},
      {"binder": "B2", "binding result": "no recognition"},
      {"binder": "B3", "binding result": "no recognition"},
      {"binder": "B4", "binding result": "no recognition"}
    ]},
    {"target": "T3, KRAS G12V peptide on HLA-A*11:01 (human)", "T3 peptide": "VVVGAVGVGK", "assay": "cytokine release", "values": [
      {"binder": "B5", "binding result": "no recognition"},
      {"binder": "B1", "binding result": "no recognition"},
      {"binder": "B6", "binding result": "no recognition"},
      {"binder": "B2", "binding result": "recognises"},
      {"binder": "B3", "binding result": "no recognition"},
      {"binder": "B4", "binding result": "recognises"},
      {"binder": "B7", "binding result": "no recognition"},
      {"binder": "B8", "binding result": "no recognition"},
      {"binder": "B9", "binding result": "no recognition"}
    ]},
    {"target": "T4, KRAS G12D peptide on HLA-A*11:01 (human)", "T4 peptide": "VVVGADGVGK", "assay": "cytokine release", "values": [
      {"binder": "B5", "binding result": "no recognition"},
      {"binder": "B1", "binding result": "recognises"},
      {"binder": "B2", "binding result": "no recognition"},
      {"binder": "B10", "binding result": "recognises"},
      {"binder": "B4", "binding result": "no recognition"},
      {"binder": "B7", "binding result": "no recognition"},
      {"binder": "B8", "binding result": "no recognition"}
    ]},
    {"target": "T5, KRAS G12V peptide on HLA-A*11:01 (human)", "T5 peptide": "VVGAVGVGK", "assay": "cytokine release", "values": [
      {"binder": "B4", "binding result": "no recognition"}
    ]},
    {"target": "T6, KRAS wild type peptide on HLA-A*11:01 (human)", "T6 peptide": "VVVGAGGVGK", "assay": "cytokine release", "values": [
      {"binder": "B5", "binding result": "no recognition"},
      {"binder": "B1", "binding result": "no recognition"},
      {"binder": "B6", "binding result": "no recognition"},
      {"binder": "B2", "binding result": "no recognition"},
      {"binder": "B3", "binding result": "no recognition"},
      {"binder": "B4", "binding result": "no recognition"},
      {"binder": "B7", "binding result": "no recognition"},
      {"binder": "B8", "binding result": "no recognition"},
      {"binder": "B9", "binding result": "no recognition"}
    ]},
    {"target": "T7, KRAS wild type peptide on HLA-A*11:01 (human)", "T7 peptide": "VVGAGGVGK", "assay": "cytokine release", "values": [
      {"binder": "B1", "binding result": "no recognition"},
      {"binder": "B3", "binding result": "no recognition"}
    ]}
  ]
}
